The DeepSol protein solubility set

test: soluble on expression in E. coli; label from the status in PepcDB or PDB records

Which “soluble on expression in E. coli” value does the source give for “GPGSMSAHSAARRWTNLAGIGSCHPRHHHYPTSTKEVQDAVELVRSQNGKCRVAGAGKSPNTATFTNEHLIHMERMNRILSIDTVAHTITCEAGAVMEEVMRSVDKVGLMVRCVPSYVRTTVGGCIATATHSSGIQCHCLSDYVRGLKIVDGCAQIRTLVAGKDDAELRLAACHLGVMGIVTEVTLEVQPRIQWKLVSQPLLMKDATNAALVAEKVKSTEYYRWWWVPHTDGCYESYGRVESTTGISALPPLPDALTAQDDAPVQLSPAALQEESRTNESAERAGDRSISLIVKSALKYIATDFVRHQVVECSLYAACLCPAIQPYVNKAYRRAFFSAPQVQRGSALECFTFDCLFKQWANEWAIDASRAVEAFNRLRDMIDREGMLLHFPVEFRFTAPDVSDMSPAVGRPTCWIGVVMYRPYGQEARDTRRCYDGFCRVMEEMGGRPHWAKYYDWGHREITATYGDHWERFLALRRRMDPDDIFVNGWFRNLMSPDRVNSTACTP” here?
Its value is “not soluble”.

With “MLSVRVAIVGGGLAGLYAAALLEARGVTDYVLLEARETFGGRIMSVPVAAEPDAQRDAAERFDLGATWFWPAMQPELLRVVTAFGVEAFEQYETGAMLVERARDQPAMRIDAGASMSGAWRMAGGMGALTDAISRRLDAARLRAGWRVQRLRKVDEGVDVEAEDGVGRARCWRAAQVLLAMPPRLAVRTVAFAPALPDVLALPWAACQTWMAPHAKYLAVYDMPFWREQGLSGGARSAAGPLAEIHDASGQQGGAALFGFLGVPAAARGRMAQADLRAACRAQLVRLFGERARWPRAEFLKDWADDVCTAVDADRCAQGSHAELPPALADAGAWKDRLIGIASEWSPAFGGYAAGAVDAARRGVEALLGSPDAGVPARRHQGRLWEAWRLEHHHHHH” as the sequence, how does the “soluble on expression in E. coli” value read?
The value was “soluble”.

With “SEVRWCATSDPEQHKCGNMSEAFREAGIQPSLLCVRGTSADHCVQLIAAQEADAITLDGGAIYEAGKEHGLKPVVGEVYDQEVGTSYYAVAVVRRSSHVTIDTLKGVKSCHTGINRTVGWNVPVGYLVESGRLSVMGCDVLKAVSDYFGGSCVPGAGETSYSESLCRLCRGDSSGEGVCDKSPLERYYDYSGAFRCLAEGAGDVAFVKHSTVLENTDGKTLPSWGQALLSQDFELLCRDGSRADVTEWRQCHLARVPAHAVVVRADTDGGLIFRLLNEGQRLFSHEGSSFQMFSSEAYGQKDLLFKDSTSELVPIATQTYEAWLGHEYLHAMKGLLCDPNRLPPYLRWCVLSTPEIQKCGDMAVAFRRQRLKPEIQCVSAKSPQHCMERIQAEQVDAVTLSGEDIYTAGKKYGLVPAAGEHYAPEDSSNSYYVVAVVRRDSSHAFTLDELRGKRSCHAGFGSPAGWDVPVGALIQRGFIRPKDCDVLTAVSEFFNASCVPVNNPKNYPSSLCALCVGDEQGRNKCVGNSQERYYGYRGAFRCLVENAGDVAFVRHTTVFDNTNGHNSEPWAAELRSEDYELLCPNGARAEVSQFAACNLAQIPPHAVMVRPDTNIFTVYGLLDKAQDLFGDDHNKNGFKMFDSSNYHGQDLLFKDATVRAVPVGEKTTYRGWLGLDYVAALEGMSSQQC” as the sequence, how does the “soluble on expression in E. coli” value read?
The value was “soluble”.

With “MELKKRSEFPENELWDLTALYKDRQDFLLAIEKALQDIDLFKRNYEGRLTSVDDFTQALIEIEHIYIQMSHIGTYAFMPQTTDFSDESFAQIAQAGDDFMTKASVALSFFDTALANADLDVLDTLEKNPYFSAAIRMAKIQKEHLLSPDVEKALANLREVINAPYDIYTKMRAGDFDMDDFEVDGKTYKNSFVSYENFYQNHENAEIREKAFRSFSKGLRKHQNTAAAAYLAKVKSEKLLADMKGYASVFDYLLAEQEVDRSLFDRQIDLIMTEFGPVAQKFLKHVAQVNGLEKMTFADWKLDIDNDLNPEVSIDGAYDLVMKSLAPLGQEYTKEIERYQTERWVDFAANANKDSGGYAADPYKVHPYVLMSWTGRMSDVYTLIHEIGHSGQFIFSDNHQSYFNTHMSTYYVEAPSTFNELMLSDYLEHQFDDPRQKRFALAHRLTDTYFHNFITHLLEAAFQRKVYTLIEEGGTFGADQLNAMMKEVLTDFWGDAVDIDDDAALTWMRQAHYYMGLYSYTYSAGLVISTAGYLNLKHNPNGAKEWLDFLKSGGSRTPLDTAMLIGADIATEKPLRDTIQFLSDTVDQIISYTEDMSHA” as the sequence, how does the “soluble on expression in E. coli” value read?
The value was “soluble”.

Which “soluble on expression in E. coli” value does the source give for “MGSDKIHHHHHHMAQIKPISGAEDRVLLAEALPLVSPFTLNVFPTNACNFKCSYCAQSLGAEALAATYGMDRGFMSLETMELIVEQSKAFAPYKLLSFMGHGEPLLNRDLPKMISLAARAGIAQRIEIITNASMLTHEYADELIDSGLTNLRVSLQGLDMESYRKICGVALDFDRFMERLVYFYTHKKKDMGLFVKIMDVSLPIGGAKEFYKLFNNICDRMYVENVQPVYHAVDVHSSNGSDLTRYDRYGNAHPPRTVCPLAFFSLAVWPNGDVQPCDAIYKPCVLGNVHNTNLREMWDSELLKQFRIRHLRGEKEIITGCSNCCAPDDVSHPLDALDDRKDEILCRLFG” here?
The value was “not soluble”.

Which “soluble on expression in E. coli” value does the source give for “MEEAEKPLQVAAVDSSVPRTAELAGITTLDDPLGHMPERFDAFICYCPSDIQFVQEMIRQLEQTNYRLKLCVSDRDVLPGTCVWSIASELIEKRCRRMVVVVSDDYLQSKECDFQTKFALSLSPGAHQKRLIPIKYKAMKKEFPSILRFITVCDYTNPCTKSWFWTRLAKALSLPLEHHHHHH” here?
Its value is “soluble”.

For “MESPLGSDLARLVRIWRALIDHRLKPLELTQTHWVTLHNIHQLPPDQSQIQLAKAIGIEQPSLVRTLDQLEDKGLISRQTCASDRRAKRIKLTEKADALIAEMEEVIHKTRGEILAGISSEEIELLIKLIAKLEHNIMELHSHD”, which “soluble on expression in E. coli” value is on record?
The value was “not soluble”.

Which “soluble on expression in E. coli” value does the source give for “MKWRCLIYIETRGDILFMTKWFNVGKIVNTHGVRGEIRVISRTDFPEERYKVGNTLYISNEKGTDYLPVKVTSHRQHKTFDLLTFEGYNNVDEVEKFKGSLIKVPEEQLGELAEGEYYYHEIIGCSVVTEEGEALGTIKEILSPGANDVWVIKRPKGQDLLIPYIDDVVLQVNIENKLVTIHVMEGLLLEHHHHHH” here?
The value was “soluble”.

With “MRTQWPSPAKLNLFLYITGQRADGYHTLQTLFQFLDYGDTISIELRDDGDIRLLTPVEGVEHEDNLIVRAARLLMKTAADSGRLPTGSGANISIDKRLPMGGGLGGGSSNAATVLVALNHLWQCGLSMDELAEMGLTLGADVPVFVRGHAAFAEGVGEILTPVDPPEKWYLVAHPGVSIPTPVIFKDPELPRNTPKRSIETLLKCEFSNDCEVIARKRFREVDAVLSWLLEYAPSRLTGTGACVFAEFDTESEARQVLEQAPEWLNGFVAKGANLSPLHRAMLLEHHHHHH” as the sequence, how does the “soluble on expression in E. coli” value read?
The value was “not soluble”.

With “QVQLQESGGGLVQPGGSLRLSCAASGFAFSGYAMSWVRQAPGKGLEWVSGINRDGSTSYTAPVKGRFTISRDNAKNILYLQMNSLRPEDTAVYYCAKWLGGRDWYDRGQGTQVTVS” as the sequence, how does the “soluble on expression in E. coli” value read?
The value was “soluble”.

Which “soluble on expression in E. coli” value does the source give for “MAHHHHHHMGKNETDTDVLTSNVEVGSVLSQCAESRVHECNFYGYRAVCKHRFPKAYRHPALDQRLREQRTVREGRALARCLKNGVLAPTVFAVDRERCAIVMERIDGLTVREIFNHEQGNVAQGKTDVSFLVSFLLRGMGEVVGLLHNADIIHGDLTTSNFMCKRNFLERRLSTENLASNTSSRDSIVVLDFGLVMDKNSAEERAVDLYVLERALKSSHPFLEHVATRLVLEGYHRTVDPQKGSVTMARLEAVRARGRKRSMIG” here?
Its value is “not soluble”.

For “ACDYTCGSACYSSSDVSTAQAAGYKLHEDGETVGSNSYPHKYNNYEGFDFSVSSPYYEWPILSSGDVYSGGSPGADRVVFNENNQLAGVITHTGASGNNFVECT”, which “soluble on expression in E. coli” value is on record?
Its value is “soluble”.

Which “soluble on expression in E. coli” value does the source give for “MGSDKIHHHHHHMKMVTKLSIVLGLIATLVLSGCQKHDTHEEMPHYAATTPFREDTSILEPYVCQIRAIRHIEVRSLEKGYLTHIFIDEGQWVKKGQPMFKIMPNVYQAELLTAEAEAQNVNIEYLNTKALADKNIVSANELALAKAKLDKANAQVNLAKTHLGFTDIRAPFDGITDHLAVRIGSLLDEDDLLTELSDIAHLWVYFNVPEAKYLDFIRREKGKTNEKVQLRMANGEIYEHTGVIETIVGDFYNTSGNIQFRALFENPDRVLRHGQTGTILMTVPYPNAMLIPQKATFEIMDKIYLYVVNKEEKVEQRLIQIEAELPHMFIVKSGVNDGERILIEGMRKVSPGDKVMIDLKPPQEVRSELMKLYTE” here?
Its value is “not soluble”.

With “MTDTASKYAVKLKTNFEDPKWVNRHKFMFNFLDINGNGKITLDEIVSKASDDICAKLGATPAQTQRHQEAVEAFFKKIGLDYGKEVEFPAFVNGWKELAKHDLKLWSQNKKSLIRNWGEAVFDIFDKDGSGSISLDEWKTYGGISGICPSDEDAEKTFKHCDLDNSGKLDVDEMTRQHLGFWYTLDPNADGLYGNFVP” as the sequence, how does the “soluble on expression in E. coli” value read?
The value was “soluble”.

For “MGSDKIHHHHHHMSTSSGERVTVGTATASPGEAVRGAIPAGDLAGGVKVEIPVVVINGGGAGPTFWVNAAIHGDEPEGPLACALAVKQIDPAKLRGTVVMVPCVNPLAFSAAERGNPLDTFTYDMNRIYPGKPDGYFSDRVADAHWQAMKDVADLEISIHSGGAHSFLDKAIFVDERPESVELAKAMGEGWGCIMSNFTKAGSPMAAMNNAGKVDITVELGGRSYTSPDRFRYVGEELAKSILNICYHYDMLDGQATYPTDATIGQQEALLAPASGIFLPEPGVDFLTMMDNGTKIARIINIFGDEVGALHAPARGMFFGLRALPNVNQGDWCCFFNKVEGPRD”, which “soluble on expression in E. coli” value is on record?
Its value is “not soluble”.

Which “soluble on expression in E. coli” value does the source give for “MFDIPGLSTGDFHGFPSLLIQTPFSHAAISLFGGQLLSFVPSGGEEVIWLSPLVQPPPTAIRGGIPICWPYFGRQGQRDTMPAHGFVRTVPWQQVESCQENDGSLFLVLAPPPLKHLGLHLRMTLRIGRTLEQELATENISHAPISFTQALHNYFRVSNALQVTVQGLDGVEYLDKFEGYTQRHRQQGHWTLQDPRDPGRADRIYVDTSGHYVLVDPLFSRRIVLTTEGSHSLVVWNPGHAGASNMIDVADGWRDYLCLEPANAGPDEIELLPGARHVLRQSIAIAPL” here?
Its value is “soluble”.

For “MPYVDRQNRICGFLDIEDNENSGKFLRRYFILDTQANCLLWYMDNPQNLAVGAGAVGSLQLTYISKVSIATPKQKPKTPFCFVINALSQRYFLQANDQKDLKDWVEALNQASKITVPKAGTVPLATEVLKNLTAPPTLEKKPQVAYKTEIIGGVVVQTPISQNGGDGQEGCEPGTHAFLRRSQSYIPTSGCRPSTGPPLIKSGYCVKQGNVRKSWKRRFFALDDFTICYFKCEQDREPLRTIPLKDVLKTHECLVKSGDLLMRDNLFEIITTSRTFYVQADSPEDMHSWIEGIGAAVQALKCHPREPSFSRSISLTRPGSSTLTSAPNSILSRRRPPAEEKRGLCKAPSVASSWQPWTPVPQAEEKPLSVEHAPEDSLFMPNPGESTATGVLASSRVRHRSEPQHPKEKPFVFNLDDENIRTSDV”, which “soluble on expression in E. coli” value is on record?
Its value is “soluble”.

For “MGSDKIHHHHHHLSITKPHTTVLLTGATGNWGRATLRELSSRSDRVTVLVLSLPGEKDKAVLSEFSAMENLDVVWGDLTDYATVATCVARADVVLHVGAVVSPLADEQPELATRVNVGSMRNIIRAVKAQPDPSRIRVVGVGSVAQTGNRNPPLHWGRVGDPIRVSRFDAYGQSKVTAERELVEAGLPTWVWLRQTGIFHPGMLEIRDPIMTHSPFAGVMEWVSAQDSARLLANLCEPDVPGELWGGVYNIGGGEGWRLSNWQLQTAIGQAVGVKDIRKWYDRNWFALKNFHGQWYTDSDRLHALVPFRQDTFESALARALATAPSSVRNAGKVPAWIVKHLVMKPLSRKPRGTMAAIRSGTDQEVSAHFGSLPEWRSIGDWSTFEPPAPSRTPSYLDHGYDENKPASEWSAIDYLEAAAFRGGRLLTEDVNPGLPSAPLMWSCGAGHEFAASPRLVLQAGHWCPACTADPAGYDRQAEHNKFLAQVIDA”, which “soluble on expression in E. coli” value is on record?
Its value is “not soluble”.

Which “soluble on expression in E. coli” value does the source give for “MGSDKIHHHHHHMVKSANLLHVSQPAVTKTVRELEEILGVSLFEREGRGIRITRYGEVFLRHAGATLAALRHAVDSVSQEAAKAGPPVRVGALPTVATRIMPQAMTAFLAENTGSPIKIVTGDNSVLLEQLRIGELDLVVGRLAAPEKMAGFSFEHLYSEPVVFVVRAGHPLLTGETAPFERMRDFPVLMPTRNSIIRPLVDYFLIANGVATLPNQIETVSDSFGRAFLKISDAVWVISEGVVAGDIAEGTICALPIDCSPTRGPVGLTVRADAMATLPQSLLMQAIRDAAAAIMP” here?
The value was “not soluble”.
